Results from patent US20240109954A1 (GENERAL HOSPITAL, published 2024).

T1: human FcγR2B (human, UniProt P31994 43-217)
T1 construct: also called huFcγR2B
T1 sequence: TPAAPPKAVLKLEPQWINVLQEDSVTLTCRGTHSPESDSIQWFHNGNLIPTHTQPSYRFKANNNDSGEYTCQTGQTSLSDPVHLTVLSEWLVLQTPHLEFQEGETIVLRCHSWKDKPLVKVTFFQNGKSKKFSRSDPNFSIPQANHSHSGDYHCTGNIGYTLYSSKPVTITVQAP

T2: human FcγR2A (R131) (human, UniProt P12318 34-217)
T2 construct: also called huFcγR2A
T2 sequence: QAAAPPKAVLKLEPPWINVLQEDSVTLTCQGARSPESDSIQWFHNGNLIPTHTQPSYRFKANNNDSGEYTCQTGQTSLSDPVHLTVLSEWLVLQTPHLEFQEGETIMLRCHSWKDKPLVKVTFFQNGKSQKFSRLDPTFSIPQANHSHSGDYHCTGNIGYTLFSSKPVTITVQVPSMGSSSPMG

T3: mouse FcγRIIb (mouse, UniProt P08101 30-210)
T3 construct: also called mFcγRIIb; mFcγR2b
T3 sequence: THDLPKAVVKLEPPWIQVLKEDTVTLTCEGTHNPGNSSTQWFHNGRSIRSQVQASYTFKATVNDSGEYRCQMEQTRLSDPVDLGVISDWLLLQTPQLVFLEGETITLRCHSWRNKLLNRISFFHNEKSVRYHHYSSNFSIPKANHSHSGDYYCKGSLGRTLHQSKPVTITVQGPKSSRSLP

T4: mouse FcγRIII (mouse, UniProt P08508 31-215)
T4 construct: also called mFcγRIII; mFcγR3
T4 sequence: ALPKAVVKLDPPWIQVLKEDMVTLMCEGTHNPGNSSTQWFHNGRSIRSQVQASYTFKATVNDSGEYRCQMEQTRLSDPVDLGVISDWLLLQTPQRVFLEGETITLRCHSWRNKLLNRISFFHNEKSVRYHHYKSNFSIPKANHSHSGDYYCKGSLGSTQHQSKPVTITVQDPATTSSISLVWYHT

T5: mouse FcγRIV (mouse, UniProt A0A0B4J1G0 21-203)
T5 construct: also called mFcγRIV
T5 sequence: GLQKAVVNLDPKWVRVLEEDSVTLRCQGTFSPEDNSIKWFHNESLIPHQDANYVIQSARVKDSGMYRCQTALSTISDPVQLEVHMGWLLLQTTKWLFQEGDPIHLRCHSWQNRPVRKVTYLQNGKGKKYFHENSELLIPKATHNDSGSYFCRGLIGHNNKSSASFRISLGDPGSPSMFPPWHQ

T6: mouse FcγRI (mouse, UniProt P26151 25-297)
T6 construct: also called mFcγRI
T6 sequence: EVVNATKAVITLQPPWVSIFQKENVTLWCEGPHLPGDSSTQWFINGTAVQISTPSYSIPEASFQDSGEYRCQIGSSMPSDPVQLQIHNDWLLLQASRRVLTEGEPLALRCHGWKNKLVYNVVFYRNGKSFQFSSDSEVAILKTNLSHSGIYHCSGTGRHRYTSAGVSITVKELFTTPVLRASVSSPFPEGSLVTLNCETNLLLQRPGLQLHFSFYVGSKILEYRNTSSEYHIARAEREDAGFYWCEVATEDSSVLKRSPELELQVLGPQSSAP

T7: EBOV GP displayed on vesicular stomatitis virus (VSV) pseudovirions (Ebola virus, UniProt Q05320 33-676)
T7 sequence: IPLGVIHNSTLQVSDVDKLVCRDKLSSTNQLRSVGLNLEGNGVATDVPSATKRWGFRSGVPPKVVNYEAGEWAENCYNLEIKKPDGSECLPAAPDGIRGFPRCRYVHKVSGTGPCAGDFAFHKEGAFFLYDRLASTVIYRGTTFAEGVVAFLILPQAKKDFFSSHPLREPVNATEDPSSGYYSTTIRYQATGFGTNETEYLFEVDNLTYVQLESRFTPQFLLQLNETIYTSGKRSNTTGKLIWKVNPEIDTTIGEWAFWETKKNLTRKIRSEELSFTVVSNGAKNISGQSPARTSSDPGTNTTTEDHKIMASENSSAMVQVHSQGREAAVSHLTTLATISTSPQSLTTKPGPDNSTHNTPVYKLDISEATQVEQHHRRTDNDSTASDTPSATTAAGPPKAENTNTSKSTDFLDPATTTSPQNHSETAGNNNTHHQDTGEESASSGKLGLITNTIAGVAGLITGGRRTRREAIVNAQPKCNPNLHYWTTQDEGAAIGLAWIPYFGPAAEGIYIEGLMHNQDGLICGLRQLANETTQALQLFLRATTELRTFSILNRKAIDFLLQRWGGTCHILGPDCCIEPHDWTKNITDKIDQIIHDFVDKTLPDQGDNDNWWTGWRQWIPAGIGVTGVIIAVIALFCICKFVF


Key:
human FcγR3B [1] = target: T8, human FcγR3B (human, UniProt O75015 17-200); experiment: SPR, mAb printed on chip, FcγR injected; ND = not detected
T8 construct: also called huFcγR3B
T8 sequence (O75015 17-200): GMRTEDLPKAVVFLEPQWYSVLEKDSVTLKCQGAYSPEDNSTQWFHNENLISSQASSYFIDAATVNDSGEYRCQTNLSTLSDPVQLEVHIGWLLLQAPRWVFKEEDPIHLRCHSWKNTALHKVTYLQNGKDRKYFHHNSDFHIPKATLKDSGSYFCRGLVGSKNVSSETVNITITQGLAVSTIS

human FcγR2B = target: T1, human FcγR2B; experiment: SPR, mAb printed on chip, FcγR injected
human FcγR2A (R131) [2] = target: T2, human FcγR2A (R131); experiment: SPR, mAb printed on chip, FcγR injected
human FcγR3A (F158) = target: T9, human FcγR3A (F158) (human, UniProt P08637 17-208); experiment: SPR, mAb printed on chip, FcγR injected
T9 construct: also called huFcγR3A
T9 sequence (P08637 17-208): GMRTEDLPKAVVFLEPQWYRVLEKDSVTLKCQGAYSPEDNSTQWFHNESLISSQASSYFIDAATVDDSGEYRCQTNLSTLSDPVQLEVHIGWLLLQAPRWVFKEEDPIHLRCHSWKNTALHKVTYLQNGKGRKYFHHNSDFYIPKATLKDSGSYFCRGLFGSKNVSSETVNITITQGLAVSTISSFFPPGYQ

mouse FcγRIIb [3] = target: T3, mouse FcγRIIb; experiment: BLI, mAb on anti-human Fab-CH1 sensor, FcγR in solution
mouse FcγRIII [4] = target: T4, mouse FcγRIII; experiment: as above
mouse FcγRIV [5] = target: T5, mouse FcγRIV; experiment: as above
mouse FcγRI = target: T6, mouse FcγRI; experiment: as above
[6] = target: T7, EBOV GP displayed on vesicular …; experiment: cell-based or functional assay
human FcγR2A (R131) [7] = target: T2, human FcγR2A (R131); experiment: SPR, mAb printed on chip, FcγR injected; remark: listed apart in the source
human FcγR3B [8] = target: T8, human FcγR3B; experiment: SPR, mAb printed on chip, FcγR injected
mouse FcγRIIb [9] = target: T3, mouse FcγRIIb; experiment: BLI, mAb on anti-human Fab-CH1 sensor, FcγR in solution; remark: listed apart in the source
mouse FcγRIII [10] = target: T4, mouse FcγRIII; experiment: as above; remark: listed apart in the source
mouse FcγRIV [11] = target: T5, mouse FcγRIV; experiment: as above; remark: listed apart in the source
[12] = target: T7, EBOV GP displayed on vesicular …; experiment: cell-based or functional assay; remark: listed apart in the source

Row | Binder | Kd (human FcγR2B) [nM] | fold-change relative to IgG1 (human FcγR2B) [fold] | Kd (human FcγR2A (R131) [2]) [nM] | fold-change relative to IgG1 (human FcγR2A (R131) [2]) [fold] | Kd (human FcγR3A (F158)) [nM] | fold-change relative to IgG1 (human FcγR3A (F158)) [fold] | Kd (mouse FcγRIIb [3]) [nM] | fold-change relative to IgG1 (mouse FcγRIIb [3]) [fold] | Kd (mouse FcγRIII [4]) [nM] | fold-change relative to IgG1 (mouse FcγRIII [4]) [fold] | Kd (mouse FcγRIV [5]) [nM] | fold-change relative to IgG1 (mouse FcγRIV [5]) [fold] | Kd (mouse FcγRI) [nM] | fold-change relative to IgG1 (mouse FcγRI) [fold] | IC50, neutralization of VSV pseudotyped to display EBOV GP [6] [µg/mL] | other results
1 | VIC16-KWES (antibody) heavy: not shown light: DIVITQDTASLAVSRGQRATISCRASESVEYYGTTLMQWYQQRPGQPPKLLIYGASNVESGVPARFSGSGSGTDFSLNIHPVEEDDIAMYFCQQSRKVPYTFGGGTKLEIKRTVAAPSVFIFPPSDEQLKSGTASVVCLLNNFYPREAKVQWKVDNALQSGNSQESVTEQDSKDSTYSLSSTLTLSKADYEKHKVYACEVTHQGLSSPVTKSFNRGEC | 224000 | 0.12 | 8600 | 3.4 | 1600 | 3.8 | 46000 | 0.3 | 20 | 0.94 | 160 | 1.5 | 70 | 1.1 | < 1 | binding result (human FcγR3B [1]): no binding (tested: FcγR 10 µM to 0.005 µM)
2 | VIC16-SDIEALGA (antibody) heavy: QVQFQQSGAELAKLGASVKMSCKASGYTFTKYWMHWIKQRPGQGLEWIGYINPSTGYSENNQKFKGKAILTADKSSSTAYMQLSSLTSDDSAVYYCVRGYDSHYYVMDYWGQGTSVTVSSASTKGPSVFPLAPSSKSTSGGTAALGCLVKDYFPEPVTVSWNSGALTSGVHTFPAVLQSSGLYSLSSVVTVPSSSLGTQTYICNVNHKPSNTKVDKKVEPKSCDKTHTCPPCPAPELLAGPDVFLFPPKPKDTLMISRTPEVTCVVVDVSHEDPEVKFNWYVDGVEVHNAKTKPREEQYNSTYRVVSVLTVLHQDWLNGKEYKCKVSNKALPLPEEKTISKAKGQPREPQVYTLPPSREEMTKNQVSLTCLVKGFYPSDIAVEWESNGQPENNYKTTPPVLDSDGSFFLYSKLTVDKSRWQQGNVFSCSVMHEALHNHYTQKSLSLSPGK light: DIVITQDTASLAVSRGQRATISCRASESVEYYGTTLMQWYQQRPGQPPKLLIYGASNVESGVPARFSGSGSGTDFSLNIHPVEEDDIAMYFCQQSRKVPYTFGGGTKLEIKRTVAAPSVFIFPPSDEQLKSGTASVVCLLNNFYPREAKVQWKVDNALQSGNSQESVTEQDSKDSTYSLSSTLTLSKADYEKHKVYACEVTHQGLSSPVTKSFNRGEC | 21000 | 1.1 | 1600 | 19 | 675 | 9 | 130 | 114 | 10 | 0.16 | 1 | 235 | 100 | 0.8 |  | fold increase in KD compared to the VIC16 human IgG1 (human FcγR2A (R131) [7]): 18 fold; Kd (human FcγR3B [8]): 3200 nM; fold-change relative to IgG1 (human FcγR3B [8]): 7.8 fold; fold increase in binding (mouse FcγRIIb [9]): 4 fold; fold decrease in binding compared to IgG1 (mouse FcγRIII [10]): 6 fold; fold increase in binding (mouse FcγRIV [11]): 14 fold
3 | mIgG1 VIC16 (antibody, V domains shown) VH: QVQFQQSGAELAKLGASVKMSCKASGYTFTKYWMHWIKQRPGQGLEWIGYINPSTGYSENNQKFKGKAILTADKSSSTAYMQLSSLTSDDSAVYYCVRGYDSHYYVMDYWGQGTSVTVSS VL: DIVITQDTASLAVSRGQRATISCRASESVEYYGTTLMQWYQQRPGQPPKLLIYGASNVESGVPARFSGSGSGTDFSLNIHPVEEDDIAMYFCQQSRKVPYTFGGGTKLEIK |  |  |  |  |  |  |  |  |  |  |  |  |  |  | 0.34 | IC50 (read off the curve) [Cont.] [12]: ~0.3 µg/mL
